# Experimental data taken from patent US11332512B2, “Peptides and combination of peptides for use in immunotherapy against various tumors” (Immatics Biotechnologies GmbH, priority 2015, dated 2022).
# Target: HLA-A*02:01 (Homo sapiens, UniProt P04439, D140Y/D185E/D98H/E176V/E277Q/G131W/G231S/I119V/I121R/I166T/I218V/L300P/L318F/N151K/N90K/P208A/P217A/Q86G/Q94H/R138H/R169H/T345S)
# Assay: MHC binding assay: UV-ligand exchange with beta2m ELISA (peptide exchange yield)
# Details: binding to HLA-A*02:01, β2m ELISA
# Text: Candidate peptides for T cell based therapies according to the present invention were further tested for their MHC binding capacity (affinity). The individual peptide-MHC complexes were produced by UV-ligand exchange, where a UV-sensitive peptide is cleaved upon UV-irradiation, and exchanged with the peptide of interest as analyzed. Only peptide candidates that can effectively bind and stabilize the peptide-receptive MHC molecules prevent dissociation of the MHC complexes. To determine the yield of the exchange reaction, an ELISA was performed based on the detection of the light chain (β2m) of stabilized MHC complexes. The assay was performed as generally described in Rodenko et al. (Rodenko et al., 2006).
# 96 well MAXISorp plates (NUNC) were coated over night with 2 ug/ml streptavidin in PBS at room temperature, washed 4× and blocked for 1 h at 37° C. in 2% BSA containing blocking buffer. Refolded HLA-A*02:01/MLA-001 monomers served as standards, covering the range of 15-500 ng/ml. Peptide-MHC monomers of the UV-exchange reaction were diluted 100 fold in blocking buffer. Samples were incubated for 1 h at 37° C., washed four times, incubated with 2 ug/ml HRP conjugated anti-β2m for 1 h at 37° C., washed again and detected with TMB solution that is stopped with […]. Absorption was measured at 450 nm. Candidate peptides that show a high exchange yield (preferably higher than 50%, most preferred higher than 75%) are generally preferred for a generation and production of antibodies or fragments thereof, and/or T cell receptors or fragments thereof, as they show sufficient avidity to the MHC molecules and prevent dissociation of the MHC complexes.
row,Substance,"Peptide exchange (MHC class I binding score, peptide exchange yield)"
1,3 (RVIDDSLVVGV; listed as Homo sapiens) [compound 3],+++ (= ≥50% = +++)
2,10 (QLIEKNWLL; listed as Homo sapiens) [compound 10],+++ (= ≥50% = +++)
3,11 (LLDPKTIFL; listed as Homo sapiens) [compound 11],+++ (= ≥50% = +++)
4,12 (RLLDPKTIFL; listed as Homo sapiens) [compound 12],+++ (= ≥50% = +++)
5,13 (RLHDENILL; listed as Homo sapiens) [compound 13],+++ (= ≥50% = +++)
6,16 (SLADLSLLL; listed as Homo sapiens) [compound 16],+++ (= ≥50% = +++)
7,21 (YLMDDFSSL; listed as Homo sapiens) [compound 21],+++ (= ≥50% = +++)
8,22 (LMYPYIYHV; listed as Homo sapiens) [compound 22],+++ (= ≥50% = +++)
9,23 (ALLSPLSLA; listed as Homo sapiens) [compound 23],+++ (= ≥50% = +++)
10,25 (LLWGHPRVALA; listed as Homo sapiens) [compound 25],+++ (= ≥50% = +++)
11,26 (VLDGKVAVV; listed as Homo sapiens) [compound 26],+++ (= ≥50% = +++)
12,31 (GLLETTGLLAT; listed as Homo sapiens) [compound 31],+++ (= ≥50% = +++)
13,36 (TVLQELINV; listed as Homo sapiens) [compound 36],+++ (= ≥50% = +++)
14,45 (FLPVSVVYV; listed as Homo sapiens) [compound 45],+++ (= ≥50% = +++)
15,48 (KISDFGLATV; listed as Homo sapiens) [compound 48],+++ (= ≥50% = +++)
16,54 (YLVPGLVAA; listed as Homo sapiens) [compound 54],+++ (= ≥50% = +++)
17,58 (HLLGEGAFAQV; listed as Homo sapiens) [compound 58],+++ (= ≥50% = +++)
18,59 (ALADGIKSFLL; listed as Homo sapiens) [compound 59],+++ (= ≥50% = +++)
19,63 (KLLPMVIQL; listed as Homo sapiens) [compound 63],+++ (= ≥50% = +++)
20,68 (QLMNLIRSV; listed as Homo sapiens) [compound 68],+++ (= ≥50% = +++)

row,Substance,"Peptide exchange (MHC class I binding score, peptide exchange yield)"
1,75 (ALLDGALQL; listed as Homo sapiens) [compound 75],+++ (= ≥50% = +++)
2,80 (VLTGQVHEL; listed as Homo sapiens) [compound 80],+++ (= ≥50% = +++)
3,86 (SLFSNIESV; listed as Homo sapiens) [compound 86],+++ (= ≥50% = +++)
4,87 (KLLSLLEEA; listed as Homo sapiens) [compound 87],+++ (= ≥50% = +++)
5,88 (LLLPLELSLA; listed as Homo sapiens) [compound 88],+++ (= ≥50% = +++)
6,94 (YLDEVAFML; listed as Homo sapiens) [compound 94],+++ (= ≥50% = +++)
7,95 (KLIDEDEPLFL; listed as Homo sapiens) [compound 95],+++ (= ≥50% = +++)
8,100 (ALQSFEFRV; listed as Homo sapiens) [compound 100],+++ (= ≥50% = +++)
9,108 (FIANLPPELKA; listed as Homo sapiens) [compound 108],+++ (= ≥50% = +++)
10,109 (ILGSFELQL; listed as Homo sapiens) [compound 109],+++ (= ≥50% = +++)
11,111 (AQLEGKLVSI; listed as Homo sapiens) [compound 111],+++ (= ≥50% = +++)
12,125 (AALEVLAEV; listed as Homo sapiens) [compound 125],+++ (= ≥50% = +++)
13,130 (QLYGSAITL; listed as Homo sapiens) [compound 130],+++ (= ≥50% = +++)
14,132 (ALLNNVIEV; listed as Homo sapiens) [compound 132],+++ (= ≥50% = +++)
15,136 (LLWDAPAKC; listed as Homo sapiens) [compound 136],+++ (= ≥50% = +++)
16,139 (IILENIQSL; listed as Homo sapiens) [compound 139],+++ (= ≥50% = +++)
17,143 (MLWESIMRV; listed as Homo sapiens) [compound 143],+++ (= ≥50% = +++)
18,144 (FLISQTPLL; listed as Homo sapiens) [compound 144],+++ (= ≥50% = +++)
19,145 (ALEEKLENV; listed as Homo sapiens) [compound 145],+++ (= ≥50% = +++)
20,147 (GLLSALENV; listed as Homo sapiens) [compound 147],+++ (= ≥50% = +++)

# Results, then the substance that gave them:
row,"Peptide exchange (MHC class I binding score, peptide exchange yield)",Substance
1,+++ (= ≥50% = +++),5 (GLVDIMVHL; listed as Homo sapiens) [compound 5]
2,+++ (= ≥50% = +++),7 (ALLQALMEL; listed as Homo sapiens) [compound 7]
3,+++ (= ≥50% = +++),24 (KVWSDVTPL; listed as Homo sapiens) [compound 24]
4,+++ (= ≥50% = +++),30 (IITEVITRL; listed as Homo sapiens) [compound 30]
5,+++ (= ≥50% = +++),40 (KIWEELSVLEV; listed as Homo sapiens) [compound 40]
6,+++ (= ≥50% = +++),41 (IVTEIISEI; listed as Homo sapiens) [compound 41]
7,+++ (= ≥50% = +++),44 (AVFNLVHVV; listed as Homo sapiens) [compound 44]
8,+++ (= ≥50% = +++),47 (GLNGFNVLL; listed as Homo sapiens) [compound 47]
9,+++ (= ≥50% = +++),55 (HLFDKIIKI; listed as Homo sapiens) [compound 55]
10,+++ (= ≥50% = +++),60 (YLFSQGLQGL; listed as Homo sapiens) [compound 60]
11,+++ (= ≥50% = +++),61 (ALYPKEITL; listed as Homo sapiens) [compound 61]
12,+++ (= ≥50% = +++),62 (SLVENIHVL; listed as Homo sapiens) [compound 62]
13,+++ (= ≥50% = +++),67 (FLIENLLAA; listed as Homo sapiens) [compound 67]
14,+++ (= ≥50% = +++),76 (FTAEFLEKV; listed as Homo sapiens) [compound 76]
15,+++ (= ≥50% = +++),82 (ILAEEPIYIRV; listed as Homo sapiens) [compound 82]
16,+++ (= ≥50% = +++),98 (FVQEKIPEL; listed as Homo sapiens) [compound 98]
17,+++ (= ≥50% = +++),99 (TLFGIQLTEA; listed as Homo sapiens) [compound 99]
18,+++ (= ≥50% = +++),112 (ILAQDVAQL; listed as Homo sapiens) [compound 112]
19,+++ (= ≥50% = +++),122 (SIIDTELKV; listed as Homo sapiens) [compound 122]
20,+++ (= ≥50% = +++),126 (QLREAFEQL; listed as Homo sapiens) [compound 126]
21,+++ (= ≥50% = +++),131 (SLYPHFTLL; listed as Homo sapiens) [compound 131]
22,+++ (= ≥50% = +++),140 (FLDSQITTV; listed as Homo sapiens) [compound 140]
